{"source": "patent US20250295803A1", "about": "“5T4 ANTIBODY-DRUG CONJUGATES AND USES THEREOF” (EXELIXIS, INC., priority 2022, published 2025)", "molecules": {"B1": {"name": "mAbA4: 5T4 antibody comprising VH of SEQ ID NO:25 and VL of SEQ ID NO:26 (antibody, V domains shown)", "VH": "EVQLVESGGGLVQPGGSLRLSCAASGFTFSRYYIHWVRQAPGKGLEWVAFISPGGSYTYYADSVKGRFTISADTSKNTAYLQMNSLRAEDTAVYYCAREYYSMGVLDYWGQGTLVTVSS", "VL": "DIQMTQSPSSLSASVGDRVTITCRASQSVSSAVAWYQQKPGKAPKLLIYSASSLYSGVPSRFSGSRSGTDFTLTISSLQPEDFATYYCQQAYESPYTFGQGTKVEIK", "modifications": "Antibody mAbA4 VH Sequence; Antibody mAbA4 VL Sequence"}, "B2": {"name": "mAbA15: 5T4 antibody comprising VH of SEQ ID NO:44 and VL of SEQ ID NO:45 (antibody, V domains shown)", "VH": "EVQLVESGGGLVQPGGSLRLSCAASGFTFSSYYIHWVRQAPGKGLEWVAYITSTGSYTEYADSVKGRFTISADTSKNTAYLQMNSLRAEDTAVYYCARYDRSTRYSGLDYWGQGTLVTVSS", "VL": "B1 VL with E93A, S94T, Y96V", "modifications": "Antibody mAbA15 VH Sequence; Antibody mAbA15 VL Sequence"}, "B3": {"name": "mAbA17: 5T4 antibody comprising VH of SEQ ID NO:62 and VL of SEQ ID NO:63 (antibody, V domains shown)", "VH": "EVQLVESGGGLVQPGGSLRLSCAASGFTFSRYWIHWVRQAPGKGLEWVAAIFPYSGSTLYADSVKGRFTISADTSKNTAYLQMNSLRAEDTAVYYCARSPSRSILPSGLDYWGQGTLVTVSS", "VL": "B1 VL with A91G, Y92D, E93G", "modifications": "Antibody mAbA17 VH Sequence; Antibody mAbA17 VL Sequence"}, "B4": {"name": "mAbA17 (antibody, V domains shown)", "VH": "B3 VH", "VL": "DIQMTQSPSSLSASVGDRVTITCRASQSVSSAVAWYQQKPGKAPKLLIYSASSLYSGVPSRFSGSRSGTDFTLTISSLQPEDFATYYCQQGDGSPYTFGQGTKVEIKR", "notes": "also called Antibody mAbA17"}, "B5": {"name": "mAbA4 (antibody, V domains shown)", "VH": "B1 VH", "VL": "B4 VL with G91A, D92Y, G93E", "notes": "also called Antibody mAbA4"}, "B6": {"name": "mAbA15 (antibody, V domains shown)", "VH": "B2 VH", "VL": "B4 VL with G91A, D92Y, G93A, S94T, Y96V", "notes": "also called Antibody mAbA15"}}, "note": "Numbering of substitutions follows the chain as printed.", "data": [{"tested_on": "HEK-cyno-5T4 cells", "assay": "Cell binding (flow cytometry), HEK-cyno-5T4 cells", "type": "cell-based", "settings": "not given", "experimental": "Antibodies that were selected for binding to 5T4, for example, such as those described in Example 2, were evaluated for binding to cells that express 5T4. Cells were harvested at 70-90% confluence on the day of the assay. In a v-bottom 96-well plate (Costar 3897), 100,000 cells per well were incubated with 50 μL per well 8- or 12-point antibody dilution series for 30 minutes at +4° C. After incubation, cells were washed once with PBS by centrifugation at 200×g for 5 minutes. Cells were then incubated with 50 μL per well of Alexa Fluor 488 Goat anti-human IgG Fab (Jackson Immuno Research 109-547-003) at 1:100 dilution for 30 minutes at +4° C. Cells were washed twice with PBS by centrifugation at 200×g for 5 minutes and were acquired on iQue Screener Plus (Sartorius). Mean fluorescence intensities of BL1 (Alexa-Fluor-488) channel were plotted against antibody concentrations to generate a dose response curve and EC50 values.", "values": [{"molecule": "B1", "binding to HEK-cyno-5T4 cells": "binding"}, {"molecule": "B2", "binding to HEK-cyno-5T4 cells": "binding"}, {"molecule": "B3", "binding to HEK-cyno-5T4 cells": "binding"}]}, {"tested_on": "not listed separately", "assay": "Size exclusion chromatography (SEC) developability", "type": "physicochemical", "settings": "1 mg/mL in Dulbecco's PBS pH 7.4", "experimental": "Antibodies that were selected for binding to 5T4, such as those described in Examples 2 and 3, were tested by various methods to assess developability. For example, various chromatographic methods, including size exclusion chromatography (SEC), hydrophobic interaction chromatography (HIC), and standup monolayer adsorption chromatography (SMAC) were employed to assess factors, such as monomer percentage, solubility, and antibody aggregation or precipitation.\nSize exclusion chromatography (SEC) analysis was performed using a 7.8 mm ID×30 cm TSKgel G3000SWXL column (Tosoh Bioscience LLC, PN 08541) with a 6 mm×4 cm guard column (PN 08543) on an Agilent 1100 HPLC. Antibodies were normalized to 1 mg/mL concentration in Dulbecco's PBS (pH 7.4, without Ca^2+/Mg^2+) and clarified via centrifugation to pellet particulates while still retaining soluble aggregates. The mobile phase buffer was Dulbecco's PBS (pH 7.4, without Ca^2+/Mg^2+) at 2× concentration (diluted from 10× stock concentration. For each sample, 10 μL was loaded and isocratically eluted at 1.0 mL/minute over 20 minutes at ambient temperature. Absorbance was monitored at 280 nm. Chromatographic peaks were integrated to determine percentage of homogeneity and retention time. The column stationary phase along with choice of mobile phase supports hydrophobic and electrostatic interactions in addition to molecular sizing (secondary interactions much milder compared to SMAC). Data analysis was performed using Agilent ChemStation B.04.03 SP1.", "values": [{"molecule": "B1", "developability based on SEC analysis": "strong developability"}, {"molecule": "B2", "developability based on SEC analysis": "strong developability"}, {"molecule": "B3", "developability based on SEC analysis": "strong developability"}]}, {"target": "T1, HEK293 and CHO cells transfected to express cyno 5T4 (Macaca fascicularis, UniProt Q4R8Y9)", "T1 construct": "expressed in transfected cells; host or cells: HEK293 and CHO", "T1 sequence (Q4R8Y9 35-420)": "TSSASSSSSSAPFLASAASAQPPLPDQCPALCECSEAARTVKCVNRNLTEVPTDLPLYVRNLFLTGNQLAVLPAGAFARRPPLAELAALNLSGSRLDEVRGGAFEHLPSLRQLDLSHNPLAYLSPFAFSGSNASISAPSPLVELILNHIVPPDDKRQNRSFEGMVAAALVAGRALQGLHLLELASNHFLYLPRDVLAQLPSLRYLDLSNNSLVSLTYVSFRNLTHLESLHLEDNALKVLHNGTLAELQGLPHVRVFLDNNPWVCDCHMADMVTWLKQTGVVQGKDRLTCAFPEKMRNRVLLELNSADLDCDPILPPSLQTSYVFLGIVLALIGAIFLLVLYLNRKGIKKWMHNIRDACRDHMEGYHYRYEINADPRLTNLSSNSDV", "assay": "Cell binding to transfected HEK293 and CHO cells, cyno 5T4", "type": "cell-based", "settings": "not given", "experimental": "Unconjugated antibodies were tested for their ability to bind to HEK293 and CHO cells transfected to express human, cyno, rat, or mouse 5T4.", "values": [{"molecule": "B1", "reactivity to cells transfected to express cyno 5T4": "reactive"}, {"molecule": "B2", "reactivity to cells transfected to express cyno 5T4": "reactive"}, {"molecule": "B3", "reactivity to cells transfected to express cyno 5T4": "reactive"}]}, {"target": "T2, unconjugated human TPBG/5T4 protein with a c-terminal polyhistidine and Avi tag (AcroBiosystems Cat. No. … (human, UniProt Q13641 32-355))", "T2 construct": "Bought protein; also called Acro TPGH52E5; Acro Catalog No. TPGH52E; not shown: C-terminal polyhistidine and Avi tag", "T2 sequence": "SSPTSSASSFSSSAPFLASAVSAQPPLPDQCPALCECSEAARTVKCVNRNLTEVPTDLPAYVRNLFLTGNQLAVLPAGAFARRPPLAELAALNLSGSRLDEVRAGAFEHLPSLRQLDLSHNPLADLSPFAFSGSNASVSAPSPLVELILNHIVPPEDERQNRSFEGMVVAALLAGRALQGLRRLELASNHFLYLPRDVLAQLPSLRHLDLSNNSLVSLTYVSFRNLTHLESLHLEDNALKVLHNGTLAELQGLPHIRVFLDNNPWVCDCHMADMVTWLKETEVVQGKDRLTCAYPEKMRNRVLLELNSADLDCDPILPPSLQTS", "assay": "ELISA on coated human 5T4 His-Avi (Acro TPG-H52E5); antibody condition: pH 8.5 Day 7", "settings": "not given", "experimental": "(§1) A. Normal Binding Unconjugated antibodies were tested for their ability to bind to human 5T4 (hu5T4) using ELISA. On Day 1, unconjugated human TPBG/5T4 protein with a c-terminal polyhistidine and Avi (AVITAG™) tag (AcroBiosystems (Newark, DE, USA), Cat. No. TPG-H52E5) was diluted 2 μg/mL in PBS, mixed thoroughly, plated 100 μL per well in a 96-well plate (Nunc MAXISORP®) and incubated overnight at 4° C.", "units": {"EC50": "nM"}, "values": [{"molecule": "B4", "EC50": 0.158}, {"molecule": "B5", "EC50": 0.128}, {"molecule": "B6", "EC50": 0.143}]}, {"target": "T2, unconjugated human TPBG/5T4 protein …", "assay": "ELISA on coated human 5T4 His-Avi (Acro TPG-H52E5); antibody condition: PBS time 24 hr.", "settings": "not given", "experimental": "as §1\n3. Oxidative Stress. Several unconjugated antibodies were tested for their ability to bind to 5T4 using ELISA in an oxidative environment. Solutions of 1 mg/mL to 10 mg/mL of antibody in 20 mM citrate/50 mM NaCl at a pH of 5.5 were prepared and stored at 37° C. for 1 to 2 weeks.", "units": {"EC50": "nM"}, "values": [{"molecule": "B4", "EC50": 0.186}, {"molecule": "B5", "EC50": 0.2}, {"molecule": "B6", "EC50": 0.212}]}, {"target": "T2, unconjugated human TPBG/5T4 protein …", "assay": "ELISA on coated human 5T4 His-Avi (Acro TPG-H52E5); antibody condition: PBS + H2O2 time 48 hr.", "settings": "not given", "experimental": "as §1\n3. Oxidative Stress. Several unconjugated antibodies were tested for their ability to bind to 5T4 using ELISA in an oxidative environment. […]", "units": {"EC50": "nM"}, "values": [{"molecule": "B4", "EC50": 0.207}, {"molecule": "B5", "EC50": 0.386}, {"molecule": "B6", "EC50": 0.189}]}]}
